B1: parental XT-M4 scFv (VH 2.0, VL 2.11), VL-VH format (scFv)
scFv: DIQMTQSPSSLSASVGDRVTITCRASQDVGIYVNWFQQKPGKAPRRLIYRATNLADGVPSRFSGSRSGTDFTLTISSLQPEDFATYYCLEFDEHPLTFGGGTKVEIKDGGGSGGGGSGGGGSSEVQLVESGGGLVQPGGSLRLSCAASGFTFNNYWMTWVRQAPGKGLEWVASIDNSGDNTYYPDSVKDRFTISRDNAKNSLYLQMNSLRAEDTAVYYCARGGDITTGFDYWGQGTLVTVSS
notes: also called M4WT
B2: S1R5A1_10G10 scFv (scFv)
scFv: B1 scFv with K103R, T158S, D179E
B3: S2R4A3_5A3 scFv (scFv)
scFv: B1 scFv with R18I, G68S, Q205K, A220T, F229L
B4: S2R3A1_8G9 scFv (scFv)
scFv: B1 scFv with G139S, F229L
B5: S2R4A3_10H6 scFv (scFv)
scFv: B1 scFv with R18G, R24Q, D108N, F229L, V240E
notes: also called 10H6 (a)
B6: S2R3A1_2E6 scFv (scFv)
scFv: B1 scFv with S122N, G132V, T227N, F229L
notes: also called 2E6 (c)
B7: S1R5A1_3B3 scFv (scFv)
scFv: B1 scFv with I31F, F229L
B8: S2R4A3_10D8 scFv (scFv)
scFv: B1 scFv with R18K, I31F, G114N, G133E
notes: also called 10D8 (b)
B9: S2R3A1_5H3 scFv (scFv)
scFv: B1 scFv with Y49D, Q126L
B10: S2R4A4_1G6 scFv (scFv)
scFv: B1 scFv with I31F, T227N
B11: parental XT-M4 scFv-Fc fusion (Fc fusion)
chain: B1 scFv
notes: Bivalent scFv-Fc made in COS cells; not shown: wild-type human IgG Fc (hinge and constant domains)
B12: 6G4 scFv-Fc fusion (Fc fusion)
chain: B1 scFv with T226L, T227D, G228S, F229L, D230H, Y231F
notes: Assayed separately; fold gain against the M4 value of the ribosome display set; not shown: wild-type human IgG Fc (hinge and constant domains)

Changes are numbered by the printed parent chain. Several values for one entry are separate records, joined by “and”; a condition that tells them apart may be missing. Equal entries are not always repeated.

The term IC50 denotes the concentration that inhibits the measured activity by half. Usually EC50 stands for the concentration giving half of the maximal effect. A higher EC50 goes with a need for much substance. The term koff denotes the rate constant with which the complex falls apart.

T3 sequence (Q15109 23-342): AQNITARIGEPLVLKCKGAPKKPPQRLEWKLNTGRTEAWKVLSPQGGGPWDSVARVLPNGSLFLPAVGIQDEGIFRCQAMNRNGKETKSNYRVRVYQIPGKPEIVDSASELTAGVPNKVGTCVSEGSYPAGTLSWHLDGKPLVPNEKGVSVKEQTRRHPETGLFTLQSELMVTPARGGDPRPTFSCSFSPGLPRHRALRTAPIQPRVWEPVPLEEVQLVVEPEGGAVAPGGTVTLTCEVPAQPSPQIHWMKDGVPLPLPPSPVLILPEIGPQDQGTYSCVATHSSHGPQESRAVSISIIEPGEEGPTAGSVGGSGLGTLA

In one test the target is T1, hRAGE-Fc (human, UniProt Q15109 23-342, biotin label in the selections and HTRF assays).
T1 construct: extracellular domain; also called biotin labeled hRAGE-Fc; Biotin-labeled RAGE-Fc; not shown: Fc part
T1 sequence (Q15109 23-342): as above
The test can be described thus: HTRF competition, scFv vs labelled parental XT-M4 (competitor) on hRAGE. Here is the method: (§1) Increases in binding to RAGE antigen were detected with the aid of a competition assay using parental XT-M4 antibody. Both phage display and ribosome display libraries were selected for affinity improved variants by incubating with biotin labeled hRAGE-Fc, recovering binding clones using streptavidin magnetic beads and washing away non binding variants. Sequential rounds of selection were carried on decreasing antigen concentrations to drive the preferential recovery of higher affinity variants. Clones recovered after selection were subsequently screening for improved binding to hRAGE-Fc using HTRF. This is an assay that measures the decrease in fluorescence upon binding of parental europium cryptate-labeled XT-M4 to RAGE in the presence of competing test scFv antibodies. In these assays, periplasmic preparations of scFv were prepared from bacterial cultures and added in increasing concentrations to a combination of parental antibody and antigen. The ability of the scFV to compete with parental XT-M4 antibody to bind to Biotin-labeled RAGE-Fc was determined. In the presence of avidin-XL665 complex labeled XT-M4 bound to biotinylated RAGE-FC was detected by Fluorescence. Increasing amounts of scFv that competed with the XT-M4 for binding to biotinylated-RAGE-Fc was detected as a decrease in fluorescence. A sequential process of screening was used to focus in on a smaller number of clones with the greatest competition in HTRF assay
(TR-FRET usually uses a lanthanide donor and a delayed reading to cut background.)
On to B1, for which the IC50 was 33 nM.
Take B2: the IC50 was determined as 16.3 nM.
Same read-out and setting: as for B3, the figure is 3 nM; as for B4, 2.4 nM; as for B5, 0.3 nM.
As to B6, the IC50 turned out to be 1.9 nM.
Consider B7, for which the IC50 was 2.2 nM.
The same measure, in the same setting: as for B8, the figure is 2.6 nM; as for B9, 8.2 nM; as for B10, 1.2 nM.

The target in another test is T1, hRAGE-Fc. The experiment in a line: HTRF competition, scFv vs labelled parental XT-M4 (competitor) on biotin hRAGE-Fc. Here is the method:
as §1
For the molecule B1, the IC50 is 33.2 nM.

For the next test, the target named is T2, human RAGE expressed on CHO cells (human, UniProt Q15109 23-404).
T2 construct: whole, on cells; also called CHO-RAGE cells; cell surface expressed human RAGE
T2 sequence (Q15109 23-404): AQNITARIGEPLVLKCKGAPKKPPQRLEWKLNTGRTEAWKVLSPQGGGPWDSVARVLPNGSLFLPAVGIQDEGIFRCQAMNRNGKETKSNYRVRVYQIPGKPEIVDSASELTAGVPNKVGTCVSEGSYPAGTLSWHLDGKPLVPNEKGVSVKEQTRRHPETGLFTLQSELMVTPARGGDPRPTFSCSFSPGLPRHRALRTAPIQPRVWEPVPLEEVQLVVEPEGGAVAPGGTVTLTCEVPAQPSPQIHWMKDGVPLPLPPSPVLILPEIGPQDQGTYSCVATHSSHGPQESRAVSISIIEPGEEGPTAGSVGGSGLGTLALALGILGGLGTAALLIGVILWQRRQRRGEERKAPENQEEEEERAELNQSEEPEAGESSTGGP
The test can be described thus: cell ELISA on CHO-RAGE cells, A450 corrected for control CHO cells; ribosome display set. The method, then: (§2) Stably transfected Chinese Hamster Ovary (CHO) cells were engineered to express murine and human RAGE full length proteins. The murine and human RAGE cDNAs were cloned into the mammalian expression vector pSMED, linearized and transfected into CHO cells using lipofectin methods (Kaufman, R. J., 1990, Methods in Enzymology 185:537-66; Kaufman, R. J., 1990, Methods in Enzymology 185:487-511; Pittman, D. D. et al., 1993, Methods in Enzymology 222: 236). Cells were further selected in 20 nM methotrexate and cell extracts were harvested from individual clones and analyzed by SDS sodium dodecyl sulfate-polyacrylamide gel electrophoresis (SDS-PAGE) and Western blotting to confirm expression. […] Absorbance 450 nm values were corrected for the same clones binding to control CHO cells not expressing RAGE. EC50 values were calculated after curve fitting using GraphPad prism and are expressed in μg/ml.
In general terms: In an ELISA, binding on a coated surface is turned into a signal by an enzyme label.
In turn, B11 gave a half-maximal effective concentration (EC50) of 0.388 µg/mL.

For a further test, the target named is T2, human RAGE expressed on CHO cells. The test can be described thus: cell ELISA on CHO-RAGE cells, A450 corrected for control CHO cells. Here is the method:
as §2
As to B12, the EC50 turned out to be 0.172 µg/mL.

A further test concerns the target T1, hRAGE-Fc. The test can be described thus: IC50 of parental M4 scFv-Fc (value of the ribosome display set) over IC50 of clone, HTRF competition.
In the case of B12, the “Fold gain scFv-Fc (hRAGE)” value worked out at 11.1 fold.

The target in another test is T2, human RAGE expressed on CHO cells. The experiment in a line: cell ELISA on CHO-RAGE cells, A450 corrected for control CHO cells; phage display set. The method, then:
as §2
Consider B11, for which the midpoint of the response, the EC50, lay at 0.408 µg/mL.

A further test concerns the target T1, hRAGE-Fc. The test can be described thus: IC50 of parental M4 scFv over IC50 of clone, HTRF competition. The method, then: as §1
As to B2, the “Fold gain scFv (hRAGE)” value was determined as 2 fold.
On the same count and under the same terms, as for B3, the figure is 11 fold; as for B4, 13.8 fold.
The same measure, in the same setting: as for B5, the figure is 110 fold.
In the case of B6, the “Fold gain scFv (hRAGE)” value worked out at 17.3 fold.
For B7, the “Fold gain scFv (hRAGE)” value was determined as 15 fold.
Take B8: the “Fold gain scFv (hRAGE)” value stood at 12.7 fold.
Consider B9, for which the “Fold gain scFv (hRAGE)” value stood at 4 fold.
Take B10: the “Fold gain scFv (hRAGE)” value is 21.5 fold.

A further test addresses T3, HU-RAGE-SA (human, UniProt Q15109 23-342).
T3 construct: extracellular domain; Directly immobilized on a CM5 chip (~100 RU); also called hRAGE-SA; soluble human streptavidin-tagged RAGE; not shown: streptavidin tag (SA)
The test can be described thus: BIAcore, 10 nM scFv-Fc over directly immobilized HU-RAGE-SA, 1:1 fit.
In the case of B11, the koff is 0.0293 s⁻¹ and 0.0291 s⁻¹.
The molecule B12 registered a koff of 0.00388 s⁻¹.

A further test has as its target T1, hRAGE-Fc. The test can be described thus: HTRF competition, scFv vs labelled parental XT-M4 (competitor) on biotin hRAGE-Fc. This is another data set of the same source. Here is the method: as §1
B1: the 50% inhibitory concentration (IC50) turned out to be 33 nM.
On to B2, for which the IC50 turned out to be 16.3 nM.
On the same count and under the same terms, as for B3, the figure is approximately 3 nM; as for B4, approximately 2.4 nM; as for B5, 0.3 nM.
B6: the IC50 stood at 1.9 nM.
With B7, the IC50 stood at 2.2 nM.
As for B8, the IC50 is 2.6 nM.
Turning to B9, the IC50 came to 8.2 nM.
Same read-out and setting: as for B10, the figure is 1.2 nM.

The target of the next test is T3, HU-RAGE-SA. The test can be described thus: BIAcore kd against parental M4 scFv-Fc. On the technique in general: SPR reads the build-up and loss of mass on a sensor chip optically.
Regarding B12, the “Fold change in kd” value was found to be 7.6 fold.
